Key:
5HT3a = target: T1, 5HT3a (Homo sapiens, UniProt P46098); test: Ion channel panel (IonWorks Barracuda): 5HT3a; type: cell-based
T1 construct: host or cells: HEK293 or CHO
T1 sequence (P46098 whole entry, looked up): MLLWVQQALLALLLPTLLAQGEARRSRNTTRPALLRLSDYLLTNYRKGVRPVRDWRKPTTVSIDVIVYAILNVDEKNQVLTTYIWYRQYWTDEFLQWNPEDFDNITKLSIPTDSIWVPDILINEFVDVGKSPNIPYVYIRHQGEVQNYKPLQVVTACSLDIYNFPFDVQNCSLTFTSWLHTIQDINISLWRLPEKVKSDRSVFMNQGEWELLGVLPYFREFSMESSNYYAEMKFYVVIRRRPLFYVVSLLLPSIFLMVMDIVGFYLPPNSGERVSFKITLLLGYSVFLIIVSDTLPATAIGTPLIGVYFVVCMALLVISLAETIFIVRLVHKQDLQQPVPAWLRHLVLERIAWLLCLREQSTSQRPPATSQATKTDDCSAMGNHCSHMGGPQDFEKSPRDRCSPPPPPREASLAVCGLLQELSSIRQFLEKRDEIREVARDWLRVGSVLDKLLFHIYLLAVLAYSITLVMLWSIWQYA
In short: (§1)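 Transfected HEK293 or CHO cells were exposed for at least 5 min to peptides at 200 nM and 20 μM final, tested in duplicate, in HEPES-buffered physiological saline. Activation was taken as peptide-plus-agonist current over control current ×100, and inhibition as 1 minus that ratio ×100. Each channel's control was its own reference compound.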

α3β4 = target: T2, α3β4 (Homo sapiens, UniProt P30926+P32297); test: Ion channel panel (IonWorks Barracuda): α3β4; type: cell-based; settings: 100% = no change, <100% = inhibition
T2 construct: host or cells: HEK293 or CHO
In short: as §1

α4β2 = target: T3, α4β2 (Homo sapiens, UniProt P17787+P43681); test: Ion channel panel (IonWorks Barracuda): α4β2; type: cell-based; settings: 100% = no change, <100% = inhibition
T3 construct: host or cells: HEK293 or CHO
In short: as §1

Cav2.1 = target: T4, Cav2.1 (Homo sapiens, UniProt O00555); test: cell-based; settings: 100% = no change, <100% = inhibition
T4 construct: host or cells: HEK293 or CHO
In short: as §1

Cav2.2 = target: T5, Cav2.2 (Homo sapiens, UniProt Q00975); test: cell-based; settings: 100% = no change, <100% = inhibition
T5 construct: host or cells: HEK293 or CHO
In short: as §1

Kv2.1 = target: T6, Kv2.1 (Homo sapiens, UniProt Q14721); test: cell-based; settings: 100% = no change, <100% = inhibition
T6 construct: host or cells: HEK293 or CHO
In short: as §1

GABA = test: Ion channel panel (IonWorks Barracuda): GABA; type: cell-based; settings: 100% = no change, <100% = inhibition
In short: as §1

Nav1.5 = Nav1.5 (Homo sapiens, UniProt Q14524); test: in vitro; settings: 100% = no change; for Activity of Nav1.5 with peptide, expressed as a percentage of the reference compound: peptide at 0.2 μM; for Activity of Nav1.5 with peptide (percentage of the reference compound): peptide at 20 μM
In short: as §1

hERG = hERG (Homo sapiens, UniProt Q12809); test: in vitro; settings: 100% = no change, <100% = inhibition
In short: as §1

Kir2.1 = target: T7, Kir2.1 (Homo sapiens, UniProt P63252); test: Ion channel panel (IonWorks Barracuda): Kir2.1; type: cell-based; settings: 100% = no change, <100% = inhibition
T7 construct: host or cells: HEK293 or CHO
In short: as §1

Kv1.1 = target: T8, Kv1.1 (Homo sapiens, UniProt Q09470); test: cell-based; type: cell-based; settings: 100% = no change, <100% = inhibition
T8 construct: host or cells: HEK293 or CHO
In short: as §1

Kv1.2 = target: T9, Kv1.2 (Homo sapiens, UniProt P16389); test: cell-based; type: cell-based; settings: 100% = no change, <100% = inhibition
T9 construct: host or cells: HEK293 or CHO
In short: as §1

Kv1.3 = target: T10, Kv1.3 (Homo sapiens, UniProt P22001); test: cell-based; type: cell-based; settings: 100% = no change, <100% = inhibition
T10 construct: host or cells: HEK293 or CHO
In short: as §1

Nav1.7 = target: T11, Nav1.7 (Homo sapiens, UniProt Q15858); test: cell-based; type: cell-based; settings: 100% = no change; for Activity of Nav1.7 with peptide, expressed as a percentage of the reference compound: peptide at 0.2 μM; for Activity of Nav1.7 with peptide (percentage of the reference compound): peptide at 20 μM
T11 construct: host or cells: HEK293 or CHO

NR2A = target: T12, NR2A (Homo sapiens, UniProt Q12879); test: Ion channel panel (IonWorks Barracuda): NR2A; type: cell-based; settings: 100% = no change, <100% = inhibition
T12 construct: host or cells: HEK293 or CHO
In short: as §1

NR2B = target: T13, NR2B (Homo sapiens, UniProt Q13224); test: Ion channel panel (IonWorks Barracuda): NR2B; type: cell-based; settings: 100% = no change, <100% = inhibition
T13 construct: host or cells: HEK293 or CHO
In short: as §1

TRPA1 = target: T14, TRPA1 (Homo sapiens, UniProt O75762); test: Ion channel panel (IonWorks Barracuda): TRPA1; type: cell-based; settings: 100% = no change, <100% = inhibition
T14 construct: host or cells: HEK293 or CHO
In short: as §1

TRPV1 = target: T15, TRPV1 (Homo sapiens, UniProt Q8NER1); test: Ion channel panel (IonWorks Barracuda): TRPV1; type: cell-based; settings: 100% = no change, <100% = inhibition
T15 construct: host or cells: HEK293 or CHO
In short: as §1

[1] = first of two Nav1.5 columns (probably TP1)
[2] = second of two Nav1.5 columns (probably TP2)
[3] = first of two Nav1.7 columns (probably TP1)
[4] = second of two Nav1.7 columns (probably TP2)

T11 sequence (Q15858 whole entry): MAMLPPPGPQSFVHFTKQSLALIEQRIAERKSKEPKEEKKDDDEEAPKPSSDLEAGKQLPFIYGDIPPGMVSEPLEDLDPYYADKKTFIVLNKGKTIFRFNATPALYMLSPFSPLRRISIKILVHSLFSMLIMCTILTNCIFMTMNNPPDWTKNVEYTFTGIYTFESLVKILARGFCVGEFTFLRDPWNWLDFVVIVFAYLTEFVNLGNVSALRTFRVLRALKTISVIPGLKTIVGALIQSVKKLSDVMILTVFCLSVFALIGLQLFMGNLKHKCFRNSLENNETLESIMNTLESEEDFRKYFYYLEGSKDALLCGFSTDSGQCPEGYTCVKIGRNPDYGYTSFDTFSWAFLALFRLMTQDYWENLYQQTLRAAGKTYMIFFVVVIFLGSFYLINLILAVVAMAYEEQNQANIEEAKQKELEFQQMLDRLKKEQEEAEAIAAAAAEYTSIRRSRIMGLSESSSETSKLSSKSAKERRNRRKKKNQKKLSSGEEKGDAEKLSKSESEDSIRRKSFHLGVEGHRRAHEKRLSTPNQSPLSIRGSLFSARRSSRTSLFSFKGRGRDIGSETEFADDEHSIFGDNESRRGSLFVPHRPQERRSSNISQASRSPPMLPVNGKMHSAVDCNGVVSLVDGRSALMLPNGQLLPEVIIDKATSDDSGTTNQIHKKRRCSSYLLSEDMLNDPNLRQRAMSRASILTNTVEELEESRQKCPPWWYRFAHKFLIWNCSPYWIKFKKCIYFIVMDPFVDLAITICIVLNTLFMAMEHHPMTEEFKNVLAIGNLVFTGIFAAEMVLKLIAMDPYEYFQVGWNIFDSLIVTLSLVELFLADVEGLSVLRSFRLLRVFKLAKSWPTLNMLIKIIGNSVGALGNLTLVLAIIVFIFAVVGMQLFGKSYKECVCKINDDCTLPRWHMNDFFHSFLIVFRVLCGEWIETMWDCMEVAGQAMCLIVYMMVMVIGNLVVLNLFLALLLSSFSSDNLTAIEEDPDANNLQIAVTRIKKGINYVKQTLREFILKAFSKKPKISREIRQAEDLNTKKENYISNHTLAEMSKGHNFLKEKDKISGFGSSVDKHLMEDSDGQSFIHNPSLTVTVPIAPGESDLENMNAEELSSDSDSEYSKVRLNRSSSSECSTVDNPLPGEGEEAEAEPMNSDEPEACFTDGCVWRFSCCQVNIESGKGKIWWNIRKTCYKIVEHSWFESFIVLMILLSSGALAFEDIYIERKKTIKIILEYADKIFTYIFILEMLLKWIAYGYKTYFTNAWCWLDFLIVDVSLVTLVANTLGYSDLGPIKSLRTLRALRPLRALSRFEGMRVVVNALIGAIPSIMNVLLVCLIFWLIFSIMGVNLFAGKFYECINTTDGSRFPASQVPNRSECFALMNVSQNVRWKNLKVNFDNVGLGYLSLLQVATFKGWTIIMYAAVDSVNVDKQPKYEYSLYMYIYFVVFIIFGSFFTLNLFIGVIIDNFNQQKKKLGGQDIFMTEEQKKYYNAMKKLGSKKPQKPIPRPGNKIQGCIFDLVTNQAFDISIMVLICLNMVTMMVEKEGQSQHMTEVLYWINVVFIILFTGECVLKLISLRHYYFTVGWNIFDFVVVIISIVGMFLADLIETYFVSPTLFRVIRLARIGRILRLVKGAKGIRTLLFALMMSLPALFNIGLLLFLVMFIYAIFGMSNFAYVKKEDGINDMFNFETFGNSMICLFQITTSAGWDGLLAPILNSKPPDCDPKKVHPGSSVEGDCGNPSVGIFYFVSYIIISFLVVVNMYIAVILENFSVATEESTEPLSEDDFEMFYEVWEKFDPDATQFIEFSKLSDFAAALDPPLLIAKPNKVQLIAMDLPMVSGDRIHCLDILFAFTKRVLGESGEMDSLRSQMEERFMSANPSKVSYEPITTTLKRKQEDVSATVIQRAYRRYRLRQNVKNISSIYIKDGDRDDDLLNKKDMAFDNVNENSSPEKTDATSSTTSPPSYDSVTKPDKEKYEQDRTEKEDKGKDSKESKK
Sequence of Nav1.5 (Q14524 whole entry): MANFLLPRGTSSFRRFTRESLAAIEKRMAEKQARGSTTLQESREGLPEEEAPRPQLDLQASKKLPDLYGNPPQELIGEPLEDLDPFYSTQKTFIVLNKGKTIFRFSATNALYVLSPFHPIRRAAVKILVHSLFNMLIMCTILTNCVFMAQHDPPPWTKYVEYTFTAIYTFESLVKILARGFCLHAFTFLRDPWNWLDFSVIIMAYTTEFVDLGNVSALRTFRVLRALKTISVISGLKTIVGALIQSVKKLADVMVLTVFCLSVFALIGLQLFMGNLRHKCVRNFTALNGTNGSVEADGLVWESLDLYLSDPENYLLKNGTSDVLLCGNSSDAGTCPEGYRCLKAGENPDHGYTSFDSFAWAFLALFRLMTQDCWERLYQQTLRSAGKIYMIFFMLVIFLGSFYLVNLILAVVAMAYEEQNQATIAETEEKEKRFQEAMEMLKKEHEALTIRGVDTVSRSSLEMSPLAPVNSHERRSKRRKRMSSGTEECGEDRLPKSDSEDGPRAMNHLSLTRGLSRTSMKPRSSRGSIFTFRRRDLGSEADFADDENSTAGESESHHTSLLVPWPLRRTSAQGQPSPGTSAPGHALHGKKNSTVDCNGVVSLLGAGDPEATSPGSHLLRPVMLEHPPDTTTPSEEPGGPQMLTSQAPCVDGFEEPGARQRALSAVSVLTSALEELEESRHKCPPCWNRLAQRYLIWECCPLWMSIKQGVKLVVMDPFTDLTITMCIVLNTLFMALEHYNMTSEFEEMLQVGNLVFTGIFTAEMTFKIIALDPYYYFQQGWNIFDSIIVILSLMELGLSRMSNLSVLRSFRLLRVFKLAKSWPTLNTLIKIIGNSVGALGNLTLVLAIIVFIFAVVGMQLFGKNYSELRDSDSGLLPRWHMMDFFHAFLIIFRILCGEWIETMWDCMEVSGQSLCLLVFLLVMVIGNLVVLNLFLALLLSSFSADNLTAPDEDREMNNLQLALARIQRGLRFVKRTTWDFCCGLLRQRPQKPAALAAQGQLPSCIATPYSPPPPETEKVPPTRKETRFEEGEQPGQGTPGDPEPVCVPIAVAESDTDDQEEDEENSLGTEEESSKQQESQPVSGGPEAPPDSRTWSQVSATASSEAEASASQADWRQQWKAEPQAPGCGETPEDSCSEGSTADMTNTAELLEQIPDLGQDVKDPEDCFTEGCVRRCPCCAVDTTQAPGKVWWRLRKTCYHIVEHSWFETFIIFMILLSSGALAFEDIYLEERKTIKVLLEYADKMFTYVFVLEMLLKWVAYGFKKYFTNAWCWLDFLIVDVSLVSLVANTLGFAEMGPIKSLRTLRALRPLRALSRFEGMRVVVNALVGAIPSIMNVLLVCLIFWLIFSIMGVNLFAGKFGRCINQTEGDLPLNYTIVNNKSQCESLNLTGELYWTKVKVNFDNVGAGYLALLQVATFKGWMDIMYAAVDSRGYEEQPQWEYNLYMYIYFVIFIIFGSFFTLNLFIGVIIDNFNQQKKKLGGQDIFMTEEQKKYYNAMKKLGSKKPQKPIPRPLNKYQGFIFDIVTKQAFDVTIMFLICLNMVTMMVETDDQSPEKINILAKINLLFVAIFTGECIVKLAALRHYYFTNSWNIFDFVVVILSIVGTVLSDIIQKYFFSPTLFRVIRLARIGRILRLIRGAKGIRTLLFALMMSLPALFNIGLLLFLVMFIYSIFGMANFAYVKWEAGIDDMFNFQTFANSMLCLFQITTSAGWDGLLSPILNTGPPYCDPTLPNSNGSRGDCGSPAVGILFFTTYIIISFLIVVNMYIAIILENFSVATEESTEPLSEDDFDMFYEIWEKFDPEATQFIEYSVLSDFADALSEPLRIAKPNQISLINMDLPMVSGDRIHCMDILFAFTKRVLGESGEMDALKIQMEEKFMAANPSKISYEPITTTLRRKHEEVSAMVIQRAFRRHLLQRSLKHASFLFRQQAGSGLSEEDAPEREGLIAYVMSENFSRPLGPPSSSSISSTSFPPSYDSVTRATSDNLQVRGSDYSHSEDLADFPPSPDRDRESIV
T7 sequence (P63252 whole entry): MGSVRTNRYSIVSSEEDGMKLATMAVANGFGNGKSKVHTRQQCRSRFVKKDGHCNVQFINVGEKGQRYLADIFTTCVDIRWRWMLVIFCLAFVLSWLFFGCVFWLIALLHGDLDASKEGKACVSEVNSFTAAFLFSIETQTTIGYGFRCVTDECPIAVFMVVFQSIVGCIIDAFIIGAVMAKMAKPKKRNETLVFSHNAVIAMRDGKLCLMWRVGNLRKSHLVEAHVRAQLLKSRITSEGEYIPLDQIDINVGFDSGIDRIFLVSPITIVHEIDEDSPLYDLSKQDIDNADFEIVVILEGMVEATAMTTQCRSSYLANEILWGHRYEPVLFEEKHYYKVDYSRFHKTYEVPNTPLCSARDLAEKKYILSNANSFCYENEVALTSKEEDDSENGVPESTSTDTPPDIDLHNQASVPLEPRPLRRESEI
T8 sequence (Q09470 whole entry): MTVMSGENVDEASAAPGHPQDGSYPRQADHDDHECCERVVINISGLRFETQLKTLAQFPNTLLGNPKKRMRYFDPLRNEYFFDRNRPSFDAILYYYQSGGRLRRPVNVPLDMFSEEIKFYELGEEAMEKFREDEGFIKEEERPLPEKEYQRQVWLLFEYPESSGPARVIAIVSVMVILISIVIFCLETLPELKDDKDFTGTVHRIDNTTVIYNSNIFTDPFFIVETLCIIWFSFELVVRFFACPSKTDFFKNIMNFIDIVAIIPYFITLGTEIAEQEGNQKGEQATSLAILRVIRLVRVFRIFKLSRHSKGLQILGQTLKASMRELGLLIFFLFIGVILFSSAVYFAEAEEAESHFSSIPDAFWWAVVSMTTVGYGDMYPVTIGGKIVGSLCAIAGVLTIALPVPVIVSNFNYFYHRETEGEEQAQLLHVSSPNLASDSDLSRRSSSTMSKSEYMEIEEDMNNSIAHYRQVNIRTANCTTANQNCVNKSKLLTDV

Substance: 29 (GSVFINVKCRGSPECLPKCKEAIGKSAGKCMNGKCKCYP) [compound 29]
- Activity of 5HT3a with peptide (percentage of the reference compound) (5HT3a): 91%
- Activity of 5HT3a with peptide, expressed as a percentage of the reference compound (5HT3a): 122%
- Activity of a3b4 with peptide, expressed as a percentage of the reference compound (α3β4; peptide at 0.2 μM): 108%
- Activity of a3b4 with peptide (percentage of the reference compound) (α3β4; peptide at 20 μM): 98%
- Activity of a4b2 with peptide, expressed as a percentage of the reference compound (α4β2; peptide at 0.2 μM): 108%
- Activity of a4b2 with peptide (percentage of the reference compound) (α4β2; peptide at 20 μM): 101%
- Activity of Cav2.1 with peptide, expressed as a percentage of the reference compound (Cav2.1; peptide at 0.2 μM): 100%
- Activity of Cav2.1 with peptide (percentage of the reference compound) (Cav2.1; peptide at 20 μM): 111%
- Activity of Cav2.2 with peptide, expressed as a percentage of the reference compound (Cav2.2; peptide at 0.2 μM): 116%
- Activity of Cav2.2 with peptide (percentage of the reference compound) (Cav2.2; peptide at 20 μM): 100%
- Activity of Kv2.1 with peptide, expressed as a percentage of the reference compound (Kv2.1; peptide at 0.2 μM): 91%
- Activity of Kv2.1 with peptide (percentage of the reference compound) (Kv2.1; peptide at 20 μM): 121%
- Activity of GABA with peptide, expressed as a percentage of the reference compound (GABA; peptide at 0.2 μM): 123%
- Activity of GABA with peptide (percentage of the reference compound) (GABA; peptide at 20 μM): 104%
- Activity of Nav1.5 with peptide, expressed as a percentage of the reference compound (Nav1.5; [1]): 110%
- Activity of Nav1.5 with peptide, expressed as a percentage of the reference compound (Nav1.5; [2]): 114%
- Activity of Nav1.5 with peptide (percentage of the reference compound) (Nav1.5; [1]): 103%
- Activity of Nav1.5 with peptide (percentage of the reference compound) (Nav1.5; [2]): 99%
- Activity of hERG with peptide, expressed as a percentage of the reference compound (hERG; peptide at 0.2 μM): 95%
- Activity of hERG with peptide (percentage of the reference compound) (hERG; peptide at 20 μM): 78%
- Activity of Kir2.1 with peptide, expressed as a percentage of the reference compound (Kir2.1; peptide at 0.2 μM): 103%
- Activity of Kir2.1 with peptide (percentage of the reference compound) (Kir2.1; peptide at 20 μM): 97%
- Activity of Kv1.1 with peptide, expressed as a percentage of the reference compound (Kv1.1; peptide at 0.2 μM): 97%
- Activity of Kv1.1 with peptide (percentage of the reference compound) (Kv1.1; peptide at 20 μM): 64%
- Activity of Kv1.2 with peptide, expressed as a percentage of the reference compound (Kv1.2; peptide at 0.2 μM): 77%
- Activity of Kv1.2 with peptide (percentage of the reference compound) (Kv1.2; peptide at 20 μM): 42%
- Activity of Kv1.3 with peptide, expressed as a percentage of the reference compound (Kv1.3; peptide at 0.2 μM): 21%
- Activity of Kv1.3 with peptide (percentage of the reference compound) (Kv1.3; peptide at 20 μM): 0%
- Activity of Nav1.7 with peptide, expressed as a percentage of the reference compound (Nav1.7; [3]): 97%
- Activity of Nav1.7 with peptide, expressed as a percentage of the reference compound (Nav1.7; [4]): 111%
- Activity of Nav1.7 with peptide (percentage of the reference compound) (Nav1.7; [3]): 67%
- Activity of Nav1.7 with peptide (percentage of the reference compound) (Nav1.7; [4]): 62%
- Activity of NR2A with peptide, expressed as a percentage of the reference compound (NR2A; peptide at 0.2 μM): 93%
- Activity of NR2A with peptide (percentage of the reference compound) (NR2A; peptide at 20 μM): 87%
- Activity of NR2B with peptide, expressed as a percentage of the reference compound (NR2B; peptide at 0.2 μM): 101%
- Activity of NR2B with peptide (percentage of the reference compound) (NR2B; peptide at 20 μM): 82%
- Activity of TRPA1 with peptide, expressed as a percentage of the reference compound (TRPA1; peptide at 0.2 μM): 89%
- Activity of TRPA1 with peptide (percentage of the reference compound) (TRPA1; peptide at 20 μM): 109%
- Activity of TRPV1 with peptide, expressed as a percentage of the reference compound (TRPV1; peptide at 0.2 μM): 109%
- Activity of TRPV1 with peptide (percentage of the reference compound) (TRPV1; peptide at 20 μM): 86%

From patent publication US20200262877A1, “ION CHANNEL-BINDING PEPTIDES AND METHODS OF USE THEREOF” (priority 2017, published 2020)
